Experimental findings from article PMC7859239, “Conserved strategies of RNA polymerase I hibernation and activation” (Nature Communications, 2021) are described below.

Sequences and labels used below:
B1: S. pombe Pol I subunit AC40 with C-terminal flag-his tag (natural protein, UniProt O94616 1-348, looked up)
chain: MAAVDRSRTEISVLSDRVTDVGSVDFPGYYFDEDNIWDLDKFKKNLKVSITSLDQETMVFEISGIDASIANAFRRILIAEIPTLAFEFVYIINNTSIIQDEVLSHRIGLVPISADPDMFKWFQHPLPGQEATHTDYDTVVFSLNKKCEFNKNAATDEKDPKRLYVNSEVYSGDLIWKPQGRQEERFADNPIRVVNPDIVVAKLRPGQEIDLEAHAILGIGQDHAKFSPVATASYRLLPTIHILSPIEGEDAVKFQKCFPKGVIELEEGPDGKKQARVADVRKDTVSRECLRHPEFADKVQLGRVRDHYLFSVESTGIMKPDVLFIKSIAVLKSKCLAVKSSLQNISSD
notes: RNA polymerase I and III subunit AC40, S. pombe; source: endogenous, genomically tagged S. pombe strain, purified as part of Pol I (Ni-NTA, MonoQ, MonoS); not shown: 10xHis, C-terminal, kept
B2: S. pombe Pol I subunit A43 (natural protein, UniProt O43036 1-173, looked up)
chain: MPDLSLYKQTVDLYLSIAPGHSRDPLNAIQEHMDSMILSKLPRINGIVLAYDNIRFLEKSAKVMYDSPFSFIWVRVDVLVFSPKKGDCLEGKINLVSPSHIGLLILGIFNASIPRKSIPKDWIFIEPDTTEEQGRWKTNDGNILEPGKDLEFVVDGIQREAGLTMVQGTLANS
notes: RNA polymerase I stalk subunit A43, S. pombe; Lacks the connector domain of the S. cerevisiae protein; also called stalk subunit A43; source: endogenous, S. pombe, purified as part of Pol I (Ni-NTA, MonoQ, MonoS)
B3: S. pombe common RNA polymerase subunit Rpb12 (natural protein, UniProt P48011 1-63, looked up)
chain: MNHPTSTGGTAFNPPRPATMIYLCADCGARNTIQAKEVIRCRECGHRVMYKMRTKRMVQFEAR
notes: general (common) RNA polymerase subunit Rpb12, S. pombe; source: endogenous, S. pombe, purified as part of Pol I (Ni-NTA, MonoQ, MonoS)
B4: S. pombe Pol I subunit A135 (natural protein, UniProt Q9P7X8 1-1174, looked up)
chain: MSFQTLERERTFKNPPKDGTSFPDLQKAVKPHVDSFNALTNAGLLNYAVKEIGEKCAFDSITQEEGGALKFGNKISFRVDEVQIAKPMLSSRERSSINRKVYPAEARERLTTYKSRLVLKFSWSVNGGPRQSEMREVGMIPIMVRSNRCHLEGLSPAELIAHKEESEEMGGYFIVNGIEKLIRMLILPKRNHPTAIIRPSFANRGTSYSQYGLSIRCVRPDQSSLTNTLHYLNNGVTMFRFHWRKNEYLIPSMMILKALLETSDKEIFEGIVGKDLGNTFLTDRVELMLRAYKSYGLYSQTETLQYLGSKFRVVLGVAEDLTDVEVGRFLLQKVVLVHLREAKDKFRLLLFMIRKLYALVAGECCADNPDSPQHQEILLGGFLYGQILKEKIEDWLNSIRAQINLDVRRSAPGVDFSDRKYLTRVFSKINNDIGTKLQYFLSTGNLVSNTGLDLQQATGYTVVAEKLNFYRFLSHFRMVHRGAFFAELKTTTVRKLLPEAWGFMCPVHTPDGSPCGLLNHLARKCEIVTHPSDVSQIPSLLLSLGVDPPSVVGHESGWGCVQLDGKIVGWCTYKLAKHVADVLRLMKIEYAVKLRNGTATEPAKVPLDLEIGYVPPSHNGQYPGLYLFSNPARMVRPVKHISTGELDMLGPFEQVYMDIACFPKEIVPKVSTHVEYSPTNVLSIVANMTPFSDFNQSPRNMYQCQMGKQTMGTPGTALRYRTDNKLYRLQTGQTPVVRPKLHNTYGLDHYPNGTNAVVAVISYTGYDMEDAMILNKSAHERGFGYGTVYKGESFDLSQKRRRGEPVVHHFGFAPGSTPRREWLQKLDADGLPFIGIKLEDGDPIVAYYDESTGQNFIETYHGTEPGFVDEVRLLGNDVGDSECQQIHVKLRITRSPIIGDKFSSRHGQKGICSQKWPTVDMPFTESGMQPDIIINPHAFPSRMTIGMFIESLAGKAGACHGLAQDSTPFIYSEQQTAADYFGEQLVKAGYNYHGNEPMYSGITGQEMKADIYIGVVYYQRLRHMVSDKFQVRTTGPIHNLTRQPVKGRKRAGGIRFGEMERDAVIGHGTSFLMQDRLMNCSDYAQSWVCRDCGSIISIMSTISMNGVGSASEVRCRSCAKPALGLEDTSDIWQDGSGKKFVGGTNTTLIALPSVFNYLTAELTAMNIKMMLEVK
notes: RNA polymerase I subunit A135, S. pombe; source: endogenous, S. pombe, purified as part of Pol I (Ni-NTA, MonoQ, MonoS)

Assay [1] addresses T1, S. pombe Pol I subunit A190 (Schizosaccharomyces pombe (endogenous …, UniProt P15398 1-1689)).
T1 construct: RNA polymerase I subunit A190, S. pombe; source: endogenous, S. pombe, purified as part of Pol I (Ni-NTA, MonoQ, MonoS)
The experiment in a line: cryo-EM structure; dimer particles in the 'monomer' dataset of BS3-crosslinked Sp Pol I after SEC (5 mM HEPES pH 7.8, 1 mM MgCl2, 10 µM ZnCl2, 150 mM KCl, 5 mM DTT); C2 symmetry imposed; 4.5 Å; model by placing two monomers and rigid body fitting of subdomains. Conditions: both partners purified.

Assay [2] has as its target B4. The description is as above. Conditions: both partners purified.

T1 sequence (P15398 whole entry): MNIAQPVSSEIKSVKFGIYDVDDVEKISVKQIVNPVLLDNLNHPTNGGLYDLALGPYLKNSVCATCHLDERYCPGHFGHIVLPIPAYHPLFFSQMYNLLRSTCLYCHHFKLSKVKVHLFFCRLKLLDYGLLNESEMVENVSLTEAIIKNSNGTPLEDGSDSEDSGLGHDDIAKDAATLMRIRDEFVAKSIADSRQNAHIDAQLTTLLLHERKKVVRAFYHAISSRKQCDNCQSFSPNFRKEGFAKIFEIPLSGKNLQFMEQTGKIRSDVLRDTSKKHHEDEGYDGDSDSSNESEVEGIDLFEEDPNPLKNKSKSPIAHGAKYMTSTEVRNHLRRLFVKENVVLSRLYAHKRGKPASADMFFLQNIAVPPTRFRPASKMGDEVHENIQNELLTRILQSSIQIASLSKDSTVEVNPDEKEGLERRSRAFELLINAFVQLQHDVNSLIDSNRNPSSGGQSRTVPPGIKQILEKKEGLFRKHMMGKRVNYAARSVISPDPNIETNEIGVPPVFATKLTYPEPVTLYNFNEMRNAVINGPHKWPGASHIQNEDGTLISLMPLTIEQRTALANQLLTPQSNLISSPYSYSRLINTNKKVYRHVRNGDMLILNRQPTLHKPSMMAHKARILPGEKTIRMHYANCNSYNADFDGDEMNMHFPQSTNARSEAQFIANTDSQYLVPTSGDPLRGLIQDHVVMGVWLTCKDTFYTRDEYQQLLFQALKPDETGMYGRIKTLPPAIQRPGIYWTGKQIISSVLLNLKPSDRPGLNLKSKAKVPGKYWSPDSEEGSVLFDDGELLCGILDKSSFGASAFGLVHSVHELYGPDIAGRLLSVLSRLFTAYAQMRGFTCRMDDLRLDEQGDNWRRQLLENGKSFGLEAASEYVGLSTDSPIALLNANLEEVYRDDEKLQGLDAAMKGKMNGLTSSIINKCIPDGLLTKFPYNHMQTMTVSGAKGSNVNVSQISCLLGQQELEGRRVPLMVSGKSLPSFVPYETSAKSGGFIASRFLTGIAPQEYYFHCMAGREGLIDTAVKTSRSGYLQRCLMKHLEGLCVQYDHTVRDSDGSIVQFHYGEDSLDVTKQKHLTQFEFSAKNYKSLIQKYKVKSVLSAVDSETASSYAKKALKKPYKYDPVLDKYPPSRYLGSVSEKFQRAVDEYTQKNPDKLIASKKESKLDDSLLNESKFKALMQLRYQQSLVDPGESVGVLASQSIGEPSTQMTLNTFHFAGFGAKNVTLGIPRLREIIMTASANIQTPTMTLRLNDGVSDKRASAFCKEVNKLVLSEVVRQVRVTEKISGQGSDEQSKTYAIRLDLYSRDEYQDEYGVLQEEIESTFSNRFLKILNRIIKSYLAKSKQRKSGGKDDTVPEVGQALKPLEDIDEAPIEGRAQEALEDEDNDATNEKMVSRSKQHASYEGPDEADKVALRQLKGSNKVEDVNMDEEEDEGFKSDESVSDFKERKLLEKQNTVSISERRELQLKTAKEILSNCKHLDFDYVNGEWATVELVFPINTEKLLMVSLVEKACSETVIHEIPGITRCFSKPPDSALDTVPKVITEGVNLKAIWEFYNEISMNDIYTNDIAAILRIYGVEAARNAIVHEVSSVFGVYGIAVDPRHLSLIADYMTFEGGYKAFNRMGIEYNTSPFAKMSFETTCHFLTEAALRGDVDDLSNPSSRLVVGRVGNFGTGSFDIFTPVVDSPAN

Turning to B1, the binding result in assay [1] was “binds”.

Turning to B2, the binding result in assay [2] is listed as “binds”.

For the molecule B3, the binding result in assay [1] is reported as “binds”.

Turning to B4, the binding result in assay [1] is given as “binds”.
